Target: APP-Avi-soluble human LOX-1(61-273) (human, UniProt P78380 61-273)
Experiment: SET, IgG vs soluble human LOX-1
Protocol: Affinity determination for anti-LOX-1 IgGs using Solution Equilibrium Titration (SET) was basically performed as described in the literature (Friguet et al., 1985 J Immunol Methods 77: 305-319). The assays were performed in a 96-well polypropylene plate (Thermo Scientific, Catalog no. AB-1127) using a constant concentration of LOX-1 antibody mixed with different concentrations of non-biotinylated human or cynomolgus monkey LOX-1 protein and incubated at 22° C. for 14 hours with constant shaking (300 rpm).
On a pre-blocked MSD plate (Meso Scale Discovery, catalog no. L21SA) biotinylated human or cynomolgus monkey soluble LOX-1 protein was immobilized and washed afterwards. The equilibrium binding reactions were then applied to the MSD plate with immobilized LOX-1 and incubated for 30 min. The unbound material was removed by washing the plate, and the captured antibody was detected by adding Sulfo-tagged goat anti-human IgG (Meso Scale Discovery, catalog no. R3AJ-1). After incubation and washing 1×MSD read buffer T(Meso Scale Discovery, catalog no. R92TC-2) was added and the plate was developed using a Sector Imager 6000 (Meso Scale Discovery). The data were transferred to Excel for analysis and plotted using GraphPad Prism v5. The KD values were determined by fitting the data to the following equation: […]

Binder	Kd [pM]
MOR021553 (antibody, V domains shown, IgG (human IgG1f LALA); parent MOR20148 with the printed HCDR2 stretch exchanged) VH: QVQLLESGGGLVQSGGSLRLSCAASGFTFRSGAAMHWVRQAPGKGLEWVSSIEYFGSATLYADSVKGRFTISRDNSKNTLYLQMNSLRAEDTAVYYCARNFKYAMDYWGQGTLVTVSS VL: DIALTQPASVSGSPGQSITISCTGTSSDVGSINYVSWYQQHPGKAPKMIYAVSYRPSGVSNRFSGSKSGNTASLTISGLQAEDEADYYCQVWDWRSDSRVFGGGTKLTVLG	6
MOR021441 (antibody, V domains shown, IgG (human IgG1f LALA); parent MOR20159 with the printed LCDR3 stretch exchanged) VH: QVQLVQSGAEVKKPGSSVKVSCKASGGTFSDYAISWVRQAPGQGLEWMGGIVPIVGTANYAQKFQGRVTITADESTSTAYMELSSLRSEDTAVYYCARDSSTSYYYYFDYWGQGTLVTVSS VL: DIQMTQSPSSLSASVGDRVTITCRASQDINSWLAWYQQKPGKAPKLLIYQASNLQSGVPSRFSGSGSGTDFTLTISSLQPEDFATYYCQQMKTFPITFGQGTKVEIKR	3
MOR021454 (antibody, V domains shown, IgG (human IgG1f LALA); parent MOR20151 with the printed HCDR2 stretch exchanged) VH: QVQLVESGGGLVKPGGSLRLSCAASGFTFSSYALSWVRQAPGKGLEWVGRIRHYKWGGTTEYAAPVKGRFTISRDDSKNTLYLQMNSLKTEDTAVYYCARDFWADHYYYFDYWGQGTLVTVSS VL: DIALTQPASVSGSPGQSITISCTGTSSDVGYINYVNWYQQHPGKAPKLMIYEVSNRPSGVSNRFSGSKSGNTASLTISGLQAEDEADYYCASWDWYDNVVFGGGTKLTVLG	0.7
MOR021448 (antibody, V domains shown, IgG (human IgG1f LALA); parent MOR20052 with the printed HCDR2 stretch exchanged) VH: QVQLVQSGAEVKKPGSSVKVSCKASGGTFSDYAISWVRQAPGQGLEWMGRVIRPYYGWTEYAQKFQGRVTITADESTSTAYMELSSLRSEDTAVYYCAREPSPLYGPYSDYVMDPWGQGTLVTVSS VL: DIALTQPASVSGSPGQSITISCTGTSSDVGYFNFVSWYQQHPGKAPKLMIYDVSNRPSGVSNRFSGSKSGNTASLTISGLQAEDEADYYCASYGWDSSWVFGGGTKLTVLG	0.3
MOR021457 (antibody, V domains shown, IgG (human IgG1f LALA); parent MOR20151 with the printed HCDR2 stretch exchanged) VH: QVQLVESGGGLVKPGGSLRLSCAASGFTFSSYALSWVRQAPGKGLEWVGRTRMWTVGYTTHYAASVKGRFTISRDDSKNTLYLQMNSLKTEDTAVYYCARDFWADHYYYFDYWGQGTLVTVSS VL: DIALTQPASVSGSPGQSITISCTGTSSDVGYINYVNWYQQHPGKAPKLMIYEVSNRPSGVSNRFSGSKSGNTASLTISGLQAEDEADYYCASWDWYDNVVFGGGTKLTVLG	1
MOR021449 (antibody, V domains shown, IgG (human IgG1f LALA); parent MOR20052 with the printed HCDR2 stretch exchanged) VH: QVQLVQSGAEVKKPGSSVKVSCKASGGTFSDYAISWVRQAPGQGLEWMGGIQPGFAGAWYAQKFQGRVTITADESTSTAYMELSSLRSEDTAVYYCAREPSPLYGPYSDYVMDPWGQGTLVTVSS VL: DIALTQPASVSGSPGQSITISCTGTSSDVGYFNFVSWYQQHPGKAPKLMIYDVSNRPSGVSNRFSGSKSGNTASLTISGLQAEDEADYYCASYGWDSSWVFGGGTKLTVLG	0.3
MOR021469 (antibody, V domains shown, IgG (human IgG1f LALA); parent MOR20144 with the printed HCDR2 stretch exchanged) VH: QVQLLESGGGLVQPGGSLRLSCAASGFTFSDYALHWVRQAPGKGLEWVSAISYQGGFIFYADSVKGRFTISRDNSKNTLYLQMNSLRAEDTAVYYCARSPGLTSYHDSWGQGTLVTVSS VL: DIVLTQPPSVSGAPGQRVTISCSGSSSNIGSNYVSWYQQLPGTAPKLLIHSNSHRPSGVPDRFSGSKSGTSASLAITGLQAEDEADYYCQSWDYESERVVFGGGTKLTVLG	1
MOR021444 (antibody, V domains shown, IgG (human IgG1f LALA); parent MOR20133 with the printed HCDR2 stretch exchanged) VH: QVQLVQSGAEVKKPGESLKISCKGSGYSFTNYWIAWVRQMPGKGLEWMGRIEPLSSTTEYSPSFQGQVTISADKSISTAYLQWSSLKASDTAMYYCARGKRGATHPTQYEGWEVYGFDPWGQGTLVTVSS VL: DIELTQPPSVSVSPGQTASITCSGDALGGKYASWYQQKPGQAPVLVIYDDNKRPSGIPERFSGSNSGNTATLTISGTQAEDEADYYCQSWAFYSGVFGGGTKLTVLG	35
MOR021445 (antibody, V domains shown, IgG (human IgG1f LALA); parent MOR20133 with the printed HCDR2 stretch exchanged) VH: QVQLVQSGAEVKKPGESLKISCKGSGYSFTNYWIAWVRQMPGKGLEWMGAIRPEWSETKYSPSFQGQVTISADKSISTAYLQWSSLKASDTAMYYCARGKRGATHPTQYEGWEVYGFDPWGQGTLVTVSS VL: DIELTQPPSVSVSPGQTASITCSGDALGGKYASWYQQKPGQAPVLVIYDDNKRPSGIPERFSGSNSGNTATLTISGTQAEDEADYYCQSWAFYSGVFGGGTKLTVLG	30

The remaining binders from weak to strong by Kd, led by results:

Kd [pM]	Binder
75	MOR021443 (antibody, V domains shown, IgG (human IgG1f LALA); parent MOR20133 with the printed HCDR2 stretch exchanged) VH: QVQLVQSGAEVKKPGESLKISCKGSGYSFTNYWIAWVRQMPGKGLEWMGRIFPGKSETSYSPSFQGQVTISADKSISTAYLQWSSLKASDTAMYYCARGKRGATHPTQYEGWEVYGFDPWGQGTLVTVSS VL: DIELTQPPSVSVSPGQTASITCSGDALGGKYASWYQQKPGQAPVLVIYDDNKRPSGIPERFSGSNSGNTATLTISGTQAEDEADYYCQSWAFYSGVFGGGTKLTVLG
7	MOR021434 (antibody, V domains shown, IgG (human IgG1f LALA); parent MOR20159 with the printed HCDR2 stretch exchanged) VH: QVQLVQSGAEVKKPGSSVKVSCKASGGTFSDYAISWVRQAPGQGLEWMGGIVPILGAANYAQKFQGRVTITADESTSTAYMELSSLRSEDTAVYYCARDSSTSYYYYFDYWGQGTLVTVSS VL: DIQMTQSPSSLSASVGDRVTITCRASQDINSWLAWYQQKPGKAPKLLIYQASNLQSGVPSRFSGSGSGTDFTLTISSLQPEDFATYYCQQIDHTPFTFGQGTKVEIKR
6	MOR021440 (antibody, V domains shown, IgG (human IgG1f LALA); parent MOR20159 with the printed LCDR3 stretch exchanged) VH: QVQLVQSGAEVKKPGSSVKVSCKASGGTFSDYAISWVRQAPGQGLEWMGGIVPIVGTANYAQKFQGRVTITADESTSTAYMELSSLRSEDTAVYYCARDSSTSYYYYFDYWGQGTLVTVSS VL: DIQMTQSPSSLSASVGDRVTITCRASQDINSWLAWYQQKPGKAPKLLIYQASNLQSGVPSRFSGSGSGTDFTLTISSLQPEDFATYYCQQMQESLLTFGQGTKVEIKR
4	MOR021437 (antibody, V domains shown, IgG (human IgG1f LALA); parent MOR20159 with the printed LCDR3 stretch exchanged) VH: QVQLVQSGAEVKKPGSSVKVSCKASGGTFSDYAISWVRQAPGQGLEWMGGIVPIVGTANYAQKFQGRVTITADESTSTAYMELSSLRSEDTAVYYCARDSSTSYYYYFDYWGQGTLVTVSS VL: DIQMTQSPSSLSASVGDRVTITCRASQDINSWLAWYQQKPGKAPKLLIYQASNLQSGVPSRFSGSGSGTDFTLTISSLQPEDFATYYCQQMKISLITFGQGTKVEIKR
4	MOR021436 (antibody, V domains shown, IgG (human IgG1f LALA); parent MOR20159 with the printed LCDR3 stretch exchanged) VH: QVQLVQSGAEVKKPGSSVKVSCKASGGTFSDYAISWVRQAPGQGLEWMGGIVPIVGTANYAQKFQGRVTITADESTSTAYMELSSLRSEDTAVYYCARDSSTSYYYYFDYWGQGTLVTVSS VL: DIQMTQSPSSLSASVGDRVTITCRASQDINSWLAWYQQKPGKAPKLLIYQASNLQSGVPSRFSGSGSGTDFTLTISSLQPEDFATYYCQQMQTSLITFGQGTKVEIKR
4	MOR021442 (antibody, V domains shown, IgG (human IgG1f LALA); parent MOR20159 with the printed LCDR3 stretch exchanged) VH: QVQLVQSGAEVKKPGSSVKVSCKASGGTFSDYAISWVRQAPGQGLEWMGGIVPIVGTANYAQKFQGRVTITADESTSTAYMELSSLRSEDTAVYYCARDSSTSYYYYFDYWGQGTLVTVSS VL: DIQMTQSPSSLSASVGDRVTITCRASQDINSWLAWYQQKPGKAPKLLIYQASNLQSGVPSRFSGSGSGTDFTLTISSLQPEDFATYYCQQMHRLPVTFGQGTKVEIKR
3	MOR021439 (antibody, V domains shown, IgG (human IgG1f LALA); parent MOR20159 with the printed LCDR3 stretch exchanged) VH: QVQLVQSGAEVKKPGSSVKVSCKASGGTFSDYAISWVRQAPGQGLEWMGGIVPIVGTANYAQKFQGRVTITADESTSTAYMELSSLRSEDTAVYYCARDSSTSYYYYFDYWGQGTLVTVSS VL: DIQMTQSPSSLSASVGDRVTITCRASQDINSWLAWYQQKPGKAPKLLIYQASNLQSGVPSRFSGSGSGTDFTLTISSLQPEDFATYYCQQMHRFPMTFGQGTKVEIKR
2	MOR021438 (antibody, V domains shown, IgG (human IgG1f LALA); parent MOR20159 with the printed LCDR3 stretch exchanged) VH: QVQLVQSGAEVKKPGSSVKVSCKASGGTFSDYAISWVRQAPGQGLEWMGGIVPIVGTANYAQKFQGRVTITADESTSTAYMELSSLRSEDTAVYYCARDSSTSYYYYFDYWGQGTLVTVSS VL: DIQMTQSPSSLSASVGDRVTITCRASQDINSWLAWYQQKPGKAPKLLIYQASNLQSGVPSRFSGSGSGTDFTLTISSLQPEDFATYYCQQMHRHPITFGQGTKVEIKR
2	MOR021456 (antibody, V domains shown, IgG (human IgG1f LALA); parent MOR20151 with the printed HCDR2 stretch exchanged) VH: QVQLVESGGGLVKPGGSLRLSCAASGFTFSSYALSWVRQAPGKGLEWVGRIRYWPDGYTTHYAASVKGRFTISRDDSKNTLYLQMNSLKTEDTAVYYCARDFWADHYYYFDYWGQGTLVTVSS VL: DIALTQPASVSGSPGQSITISCTGTSSDVGYINYVNWYQQHPGKAPKLMIYEVSNRPSGVSNRFSGSKSGNTASLTISGLQAEDEADYYCASWDWYDNVVFGGGTKLTVLG
0.5	MOR021470 (antibody, V domains shown, IgG (human IgG1f LALA); parent MOR20144 with the printed HCDR2 stretch exchanged) VH: QVQLLESGGGLVQPGGSLRLSCAASGFTFSDYALHWVRQAPGKGLEWVSVISYAGAFTYYADSVKGRFTISRDNSKNTLYLQMNSLRAEDTAVYYCARSPGLTSYHDSWGQGTLVTVSS VL: DIVLTQPPSVSGAPGQRVTISCSGSSSNIGSNYVSWYQQLPGTAPKLLIHSNSHRPSGVPDRFSGSKSGTSASLAITGLQAEDEADYYCQSWDYESERVVFGGGTKLTVLG
0.1	MOR021451 (antibody, V domains shown, IgG (human IgG1f LALA); parent MOR20152 with the printed HCDR2 stretch exchanged) VH: QVQLVQSGAEVKKPGSSVKVSCKASGGTFSSYAISWVRQAPGQGLEWMGRIVPGFVYTSYAQKFQGRVTITADESTSTAYMELSSLRSEDTAVYYCARDPLYRSDYYYHWFDFWGQGTLVTVSS VL: DIALTQPASVSGSPGQSITISCTGTSSDVGNFNYVSWYQQHPGKAPKLMIYGVNNRPSGVSNRFSGSKSGNTASLTISGLQAEDEADYYCAAYGWALDEVVFGGGTKLTVLG
